We go through one substance from paper PMC7014971.

The target of this assay is full-length human BRAF, wild type (insect cell-produced) (human) (UniProt P15056). Nature of the assay: SEC-MALS.
Sequence of UniProt P15056 (P15056 whole entry): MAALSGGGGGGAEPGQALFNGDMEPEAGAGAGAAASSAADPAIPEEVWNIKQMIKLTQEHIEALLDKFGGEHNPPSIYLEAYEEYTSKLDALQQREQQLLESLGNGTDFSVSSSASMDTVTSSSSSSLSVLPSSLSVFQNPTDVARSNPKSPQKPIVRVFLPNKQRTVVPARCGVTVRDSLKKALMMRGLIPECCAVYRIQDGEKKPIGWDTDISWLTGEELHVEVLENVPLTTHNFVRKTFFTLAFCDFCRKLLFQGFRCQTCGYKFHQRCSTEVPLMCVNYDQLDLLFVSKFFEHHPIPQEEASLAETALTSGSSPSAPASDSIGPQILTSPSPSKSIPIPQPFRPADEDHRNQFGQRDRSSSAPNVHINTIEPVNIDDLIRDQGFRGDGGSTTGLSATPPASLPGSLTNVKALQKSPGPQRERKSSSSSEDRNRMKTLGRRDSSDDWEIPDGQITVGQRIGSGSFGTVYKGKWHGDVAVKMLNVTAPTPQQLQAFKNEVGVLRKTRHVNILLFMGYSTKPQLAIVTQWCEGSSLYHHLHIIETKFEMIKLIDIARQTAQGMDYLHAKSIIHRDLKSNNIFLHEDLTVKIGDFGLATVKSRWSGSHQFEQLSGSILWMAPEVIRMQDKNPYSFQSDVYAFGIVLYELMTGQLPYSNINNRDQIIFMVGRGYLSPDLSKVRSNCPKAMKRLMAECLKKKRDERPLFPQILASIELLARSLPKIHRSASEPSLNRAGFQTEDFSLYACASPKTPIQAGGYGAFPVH

As for “insect cell-derived 14-3-3ε,ζ dimer (complex)”, the stoichiometry N (14-3-3 dimer per BRAF) worked out at 1.
